Measurements: paper PMC10786891, “Massively parallel profiling of RNA-targeting CRISPR-Cas13d”

T1: EsCas13d, nuclease-dead (Eubacterium siraeum, UniProt B0MS50, R295A;H300A;R849A;H854A)
T1 sequence: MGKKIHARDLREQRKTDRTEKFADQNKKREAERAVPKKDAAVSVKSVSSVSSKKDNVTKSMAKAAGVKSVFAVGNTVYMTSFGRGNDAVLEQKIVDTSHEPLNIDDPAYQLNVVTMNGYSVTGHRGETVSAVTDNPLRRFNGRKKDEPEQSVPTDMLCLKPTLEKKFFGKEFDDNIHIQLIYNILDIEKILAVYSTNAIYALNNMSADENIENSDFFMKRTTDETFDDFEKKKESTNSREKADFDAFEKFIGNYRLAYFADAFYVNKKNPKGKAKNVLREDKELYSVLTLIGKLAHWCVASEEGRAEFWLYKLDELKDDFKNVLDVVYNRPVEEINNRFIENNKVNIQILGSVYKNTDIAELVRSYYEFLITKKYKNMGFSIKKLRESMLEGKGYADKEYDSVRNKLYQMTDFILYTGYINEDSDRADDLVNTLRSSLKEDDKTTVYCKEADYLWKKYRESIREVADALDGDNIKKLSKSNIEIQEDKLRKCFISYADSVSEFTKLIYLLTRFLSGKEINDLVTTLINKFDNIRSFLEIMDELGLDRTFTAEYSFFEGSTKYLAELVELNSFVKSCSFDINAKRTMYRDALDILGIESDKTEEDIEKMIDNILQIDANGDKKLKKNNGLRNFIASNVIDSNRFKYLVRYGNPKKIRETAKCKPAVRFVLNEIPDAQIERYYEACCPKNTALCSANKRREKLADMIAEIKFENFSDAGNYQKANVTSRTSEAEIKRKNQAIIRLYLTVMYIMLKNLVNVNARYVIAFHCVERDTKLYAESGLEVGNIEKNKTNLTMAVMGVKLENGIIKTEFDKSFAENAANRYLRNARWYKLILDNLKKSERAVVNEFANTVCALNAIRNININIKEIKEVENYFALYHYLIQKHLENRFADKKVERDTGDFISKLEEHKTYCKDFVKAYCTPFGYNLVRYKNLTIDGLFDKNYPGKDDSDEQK


biological target: T1, EsCas13d, nuclease-dead; experiment: crRNA (strand 1, pre-loaded); Mg2+; 40 mM Tris-HCl pH 7.5, 150 mM NaCl, 6 mM MgCl2, 1 mM DTT, 0.1% Tween-20, 0.2 mg/ml BSA; 25 C; 10 min per concentration, then washed; details: tags: His6-TwinStrep-SUMO cleaved; N-terminal SNAP kept (SNAP-Surface 488); label: 3' end held by stalled T7 RNA polymerase

Row | Binder | Kd
1 | target 1 A18C,C21U (mixed) RNA 1: CACCCGUGCAAAAAUGCAGGGGUCUAAAACUGAGCGGAUAACCUCUCUAUGG RNA 2: GGGAAUGGAUCCACAUCUACGAAUUCGUACUAUCGAGAGGUUAUCCGCUCACCGAGAUCGGAAGAGCACACGU | 7.48 ± 0.31 nM
2 | target 1 C2A,U10C (mixed) RNA 1: CACCCGUGCAAAAAUGCAGGGGUCUAAAACUGAGCGGAUAACCUCUCUAUGG RNA 2: GGGAAUGGAUCCACAUCUACGAAUUCGUACCAUAGAGAGGUCAUCCGCUAACCGAGAUCGGAAGAGCACACGU | 17.8 ± 0.7 nM
3 | target 1 insC 3' of 19,insG 3' of 1 (mixed) RNA 1: CACCCGUGCAAAAAUGCAGGGGUCUAAAACUGAGCGGAUAACCUCUCUAUGG RNA 2: GGGAAUGGAUCCACAUCUACGAAUUCGUACCAUCAGAGAGGUUAUCCGCUCAGCCGAGAUCGGAAGAGCACACGU | 31 ± 4 nM
4 | target 1 C7G,A9G (mixed) RNA 1: CACCCGUGCAAAAAUGCAGGGGUCUAAAACUGAGCGGAUAACCUCUCUAUGG RNA 2: GGGAAUGGAUCCACAUCUACGAAUUCGUACCAUAGAGAGGUUGUGCGCUCACCGAGAUCGGAAGAGCACACGU | 14.5 ± 0.8 nM
5 | target 1 insC 3' of 19,insU 3' of 1 (mixed) RNA 1: CACCCGUGCAAAAAUGCAGGGGUCUAAAACUGAGCGGAUAACCUCUCUAUGG RNA 2: GGGAAUGGAUCCACAUCUACGAAUUCGUACCAUCAGAGAGGUUAUCCGCUCAUCCGAGAUCGGAAGAGCACACGU | 39 ± 8 nM
6 | target 1 complement block 8-11 (mixed) RNA 1: CACCCGUGCAAAAAUGCAGGGGUCUAAAACUGAGCGGAUAACCUCUCUAUGG RNA 2: GGGAAUGGAUCCACAUCUACGAAUUCGUACCAUAGAGAGGAAUACCGCUCACCGAGAUCGGAAGAGCACACGU | 18.2 ± 0.8 nM
7 | target 1 del4,del13 (mixed) RNA 1: CACCCGUGCAAAAAUGCAGGGGUCUAAAACUGAGCGGAUAACCUCUCUAUGG RNA 2: GGGAAUGGAUCCACAUCUACGAAUUCGUACCAUAGAGAGUUAUCCGUCACCGAGAUCGGAAGAGCACACGU | 16.5 ± 1.4 nM
8 | target 1 insC 3' of 11,insA 3' of 4 (mixed) RNA 1: CACCCGUGCAAAAAUGCAGGGGUCUAAAACUGAGCGGAUAACCUCUCUAUGG RNA 2: GGGAAUGGAUCCACAUCUACGAAUUCGUACCAUAGAGAGGUCUAUCCGCAUCACCGAGAUCGGAAGAGCACACGU | 21.1 ± 2 nM
9 | target 1 C2U,C6G (mixed) RNA 1: CACCCGUGCAAAAAUGCAGGGGUCUAAAACUGAGCGGAUAACCUCUCUAUGG RNA 2: GGGAAUGGAUCCACAUCUACGAAUUCGUACCAUAGAGAGGUUAUCGGCUUACCGAGAUCGGAAGAGCACACGU | 7.9 ± 0.3 nM
10 | target 1 C4G,C21U (mixed) RNA 1: CACCCGUGCAAAAAUGCAGGGGUCUAAAACUGAGCGGAUAACCUCUCUAUGG RNA 2: GGGAAUGGAUCCACAUCUACGAAUUCGUACUAUAGAGAGGUUAUCCGGUCACCGAGAUCGGAAGAGCACACGU | 3.5 ± 0.5 nM
11 | target 1 A9G,A16U (mixed) RNA 1: CACCCGUGCAAAAAUGCAGGGGUCUAAAACUGAGCGGAUAACCUCUCUAUGG RNA 2: GGGAAUGGAUCCACAUCUACGAAUUCGUACCAUAGUGAGGUUGUCCGCUCACCGAGAUCGGAAGAGCACACGU | 82 ± 27 nM
12 | target 1 insA 3' of 13,insA 3' of 6 (mixed) RNA 1: CACCCGUGCAAAAAUGCAGGGGUCUAAAACUGAGCGGAUAACCUCUCUAUGG RNA 2: GGGAAUGGAUCCACAUCUACGAAUUCGUACCAUAGAGAGAGUUAUCCAGCUCACCGAGAUCGGAAGAGCACACGU | 4.18 ± 0.24 nM
13 | target 1 U19G,C22A (mixed) RNA 1: CACCCGUGCAAAAAUGCAGGGGUCUAAAACUGAGCGGAUAACCUCUCUAUGG RNA 2: GGGAAUGGAUCCACAUCUACGAAUUCGUAACAGAGAGAGGUUAUCCGCUCACCGAGAUCGGAAGAGCACACGU | 54 ± 9 nM
14 | target 1 C4A,U19C (mixed) RNA 1: CACCCGUGCAAAAAUGCAGGGGUCUAAAACUGAGCGGAUAACCUCUCUAUGG RNA 2: GGGAAUGGAUCCACAUCUACGAAUUCGUACCACAGAGAGGUUAUCCGAUCACCGAGAUCGGAAGAGCACACGU | ~36 nM
15 | target 1 U10C,C22U (mixed) RNA 1: CACCCGUGCAAAAAUGCAGGGGUCUAAAACUGAGCGGAUAACCUCUCUAUGG RNA 2: GGGAAUGGAUCCACAUCUACGAAUUCGUAUCAUAGAGAGGUCAUCCGCUCACCGAGAUCGGAAGAGCACACGU | 56 ± 8 nM
16 | target 1 G5C,C6A (mixed) RNA 1: CACCCGUGCAAAAAUGCAGGGGUCUAAAACUGAGCGGAUAACCUCUCUAUGG RNA 2: GGGAAUGGAUCCACAUCUACGAAUUCGUACCAUAGAGAGGUUAUCACCUCACCGAGAUCGGAAGAGCACACGU | 11.3 ± 0.8 nM
17 | target 1 G5C,G13A (mixed) RNA 1: CACCCGUGCAAAAAUGCAGGGGUCUAAAACUGAGCGGAUAACCUCUCUAUGG RNA 2: GGGAAUGGAUCCACAUCUACGAAUUCGUACCAUAGAGAAGUUAUCCCCUCACCGAGAUCGGAAGAGCACACGU | 5.8 ± 0.4 nM
18 | target 1 C2G,U10C (mixed) RNA 1: CACCCGUGCAAAAAUGCAGGGGUCUAAAACUGAGCGGAUAACCUCUCUAUGG RNA 2: GGGAAUGGAUCCACAUCUACGAAUUCGUACCAUAGAGAGGUCAUCCGCUGACCGAGAUCGGAAGAGCACACGU | 5.45 ± 0.29 nM
19 | target 1 insA 3' of 19,insA 3' of 12 (mixed) RNA 1: CACCCGUGCAAAAAUGCAGGGGUCUAAAACUGAGCGGAUAACCUCUCUAUGG RNA 2: GGGAAUGGAUCCACAUCUACGAAUUCGUACCAUAAGAGAGGAUUAUCCGCUCACCGAGAUCGGAAGAGCACACGU | 54 ± 5 nM
20 | target 1 G5C,C7U (mixed) RNA 1: CACCCGUGCAAAAAUGCAGGGGUCUAAAACUGAGCGGAUAACCUCUCUAUGG RNA 2: GGGAAUGGAUCCACAUCUACGAAUUCGUACCAUAGAGAGGUUAUUCCCUCACCGAGAUCGGAAGAGCACACGU | 33 ± 6 nM
21 | target 1 insC 3' of 19,insC 3' of 1 (mixed) RNA 1: CACCCGUGCAAAAAUGCAGGGGUCUAAAACUGAGCGGAUAACCUCUCUAUGG RNA 2: GGGAAUGGAUCCACAUCUACGAAUUCGUACCAUCAGAGAGGUUAUCCGCUCACCCGAGAUCGGAAGAGCACACGU | 26.4 ± 3 nM
22 | target 1 insU 3' of 6,insU 3' of 2 (mixed) RNA 1: CACCCGUGCAAAAAUGCAGGGGUCUAAAACUGAGCGGAUAACCUCUCUAUGG RNA 2: GGGAAUGGAUCCACAUCUACGAAUUCGUACCAUAGAGAGGUUAUCCUGCUCUACCGAGAUCGGAAGAGCACACGU | 17 ± 1.6 nM
23 | target 1 insC 3' of 19,insA 3' of 2 (mixed) RNA 1: CACCCGUGCAAAAAUGCAGGGGUCUAAAACUGAGCGGAUAACCUCUCUAUGG RNA 2: GGGAAUGGAUCCACAUCUACGAAUUCGUACCAUCAGAGAGGUUAUCCGCUCAACCGAGAUCGGAAGAGCACACGU | 33.8 ± 3.1 nM
24 | target 1 C6U,U8C (mixed) RNA 1: CACCCGUGCAAAAAUGCAGGGGUCUAAAACUGAGCGGAUAACCUCUCUAUGG RNA 2: GGGAAUGGAUCCACAUCUACGAAUUCGUACCAUAGAGAGGUUACCUGCUCACCGAGAUCGGAAGAGCACACGU | 15.6 ± 0.5 nM
